According to the DeepSol protein solubility set:

Assay: soluble on expression in E. coli; label from the status in PepcDB or PDB records

Soluble on expression in E. coli, not soluble:
MGSDKIHHHHHHMLTVSDVSLRFSDRKLFDEVNINFTAGNTYGLIGANGAGKSTFLKILAGDIEPTTGHIALGPDERLSVLRQNHFDYEDERVIDVVIMGNETLYSIMKEKDAIYMKEDFSDEDGVRAAELEGEFAELGGWEAESEASQLLQNLNISEELHYQNMSELANGDKVKVLLAKALFGKPDVLLLDEPTNGLDIQSITWLEDFLIDFENTVIVVSHDRHFLNKVCTHMADLDFGKIKLFVGNYDFWKESSELAARLQADRNAKAEEKIKQLQEFVARFSANASKSKQATSRKKMLDKIELEEIVPSSRKYPFVNFKAEREMGNDLLTVENLSVTIDGEKILDNISFILRPGDKTALIGQNDIQTTALIRALMGDIEYEGTIKWGVTTSRSYLPKDNSRDFASGESILEWLRQFASKEEDDNTFLRGFLGRMLFSGDEVNKSVNVLSGGEKVRVMLSKLMLLKSNVLVLDDPTNHLDLESISSLNDGLKDFKESIIFASHDHEFIQTLANHIIVLSKNGVIDRIDETYDEFLENTEVQAKVAQLWK
MLISIESKEHYRILCIDGGSTDQTIPMIERLQRELKHISLIQLQNASIATCINKGLMDIKMTDPHDSDAFMVINPTSIVLPGKLDRLTAAFKNNDNIDMVIGQRAYNYHGEWKLKSADEFIKDNRIVTLTEQPDLLSMMSFDGKLFSAKFAELQCDETLANTYNHAILVKAMQKATDIHLVSQMIVGDNDIDTHATSNDEDFNRYIIEIMKIRQRVMEMLLLPEQRLLYSDMVDRILFNNSLKYYMNEHPAVTHTTIQLVKDYIMSMQHSDYVSQNMFDIINTVEFIGENWDREIYELWRQTLIQVGINRPTYKKFLIQLKGRKFAHRTKSMLKRLEHHHHHH
MTSSNKLHEVDKDQQSAFDITGRYQTISAHPTKEFSKPTLAAGAVLWRHSSTITENPAVEFAVIHRPHYDDWSLAKGKVDPGESLPVTAEREIREETGHHVHLGKLLGKVSYPVGERTKVVYYWIAQVHDEAFEENNEVDELRWLPYTEARELLSYDVDRLVLDKAYKRLALPTTTRVILVRHAKAHQRHNWAGNDSIRPLEKKGQRQADLLGPMLAAYGPTSIHSATPARCQQTAAPLSELTGLEVVVDDRFDDEAWLSRMTVAQKACEELIATPGTHVVVSQGLFIPDAIAWLSAQGRLPLETIEAKKASAWVLSFHEGELTGADYLVSPLGVK
MGSDKIHHHHHHMPIKVSPVAGSRFYIGSAPVDVPDTDVTEADFSAVTWIEVGQYETMGNSGDSAQGNTVNLLNRRRTYNWKGSRQAPQRSDNFALNTSDPGQLAMIAAEATDFNYPFKVELNGAPIPKSATAIITIASPGVVTWTGHNLAANTAVKFSTTGALPTGLTAGTSYYVKTVLDADTFTLSATKGGPVIATTGTQSGTHTATTIPSGPQRLFMGQVLAAEEGMGGANNAQMLNCTVLPNTNYVRVAALG
MGSDKIHHHHHHMWFKNLQLHRFSAPWSPSADEVEASLAKHAFFPGTSLEMQTQGWASPRDNGQLVHAVGRQMLLTLRTEKKLLPATVVNQVTKARAAEVEEQQGYKPGRKQLRELKEQVTEELLPRAFSIRRDTRVWIDPDNGWLAIDAASTAKADEVRGMLFKALDALPLANLHVNQSPVAAMTDWLSTDVAPAGFTVDQEIELQSGSESKATVRYVRHPLDAEDLRRHISGGKRCTRLAMTWNDRVSFVLTDSLAIKRVAPLDVIKEQADGTVSDEDERFDADFTLMAGELAGMLGDLTEALGGERKA
LFPSFLKPLAAHALELALNRLLTLDPDTSQALRTLDGQCIALSLKTPAVELQIRVDGECLRVGPVDAAYEMDLKVHGTLAGFLGQLPWLEQVRRAGGAQTGRLRVAGDAELAQRLQQLARRFDPDWQQPFIVVFGELLGVQIAGVLRMTLRQLQRSAVDLAQSAAEFITEESSSVVPRAELEAFYEDVDVLRDDVERLATRLMKLCSEMAA

Soluble on expression in E. coli, soluble:
MSLKGSLMPANVLFSARSELWPVYQPLISTYLREMGIDFDLRRDFPPEEVDYVVYAPNGGLRDFTPFTRLKAVLSLWAGVESIADNPTLTVPLARMVDHGLTQGMTEWVVGHVLRYHLGMDAHIHGLNGDWRQDVPPLASQRQVTILGLGALGEAAARALSALGFQVTGWSRSPKELPGIACLHGPDGLDQALARAEILVLLLPSTAATENTLNTQTLARLPRGARIINPGRGPLIDDDALLAALDSGQVGHATLDVFRIEPLPRDHPYWGHPNVTVTPHIASETRPETAAQVICEEGHHHHHH
HHHGIRMTRISREMMKELLSVYFIMGSNNTKADPVTVVQKALKGGATLYQFREKGGDALTGEARIKFAEKAQAACREAGVPFIVNDDVELALNLKADGIHIGQEDANAKEVRAAIGDMILGVAAHTMSEVKQAEEDGADYVGLGPIYPTETKKDTRAVQGVSLIEAVRRQGISIPIVGIGGITIDNAAPVIQAGADGVSMISAISQAEDPESAARKFREEIQTYKTGR
MSLQVLDRVELYLVKTPLPAPHAPSWIPGTIRTHVSMCIVRFITDDGVEGWSGFPAAGRERAGLGDLLAGLFLGQEAGDIDKLSERIQIMAAGGNFNWWLEPAFWDIKAKSAGLPLYKLLGGTDDRIRLYASSGELRDPGARREEAEARLAEGFDTMKIRVHDFDEAVDIDHISDIARHMQGRMRISVDCNQAFRLTQNGDAPLWSLDRAKRFVDAAADVGLAWVEEPLFGEWHEEIARLTTYSRVPVAGGELHVMGYRELARMMKMGCYNIFQPDAMWAGGITQCLKVAALCWQEGIRFTPHCWSNGFGFIANAHVFAASGFAGEELFEYPLSPPGWTPEGRDQIFSEPFLHENGWFAMPQTPGLGFEINQETLEKHGQCFFRASRNSTHWMPEALPAEGHHHHHH
MRVYKPEDVPNVQLADSTRLVTDEAGLLSNAQEEVMNGRLRAIRSSHAVEFAVVTLPSIGDAPLEDFTLKLARQWGVGNEKNNNGLLLVLVLDQRRVRFETGYGLEGYLPDGLLSRIIHDRMIPHFRSGNYAEGLSEGVLAVQQVLDGSLEHHHHHH
MSLRLYFVRHGKTQWNLEGRLQGSKGDSPLLKESIEQVSELGHYLSDTHFDLVLSSDLPRAKKTTELIMESQKTKAKITYTKDLREWQLGKLEGQKLSIIQAIYPKEMDAFRHNLANFRANNFQAESVYHTTKRVADLVRTLKDSSMKNVLLVGHGANLTASIRSLLGFEPGLLRKAGGLDNASVTILETDDCEHFTLKSWNDTSYRTQVNKISEGHHHHHH
MQGQGDLFESTDWQEVRQGKLFYQPNFLSQQEADTYFSTLMSTLPWQQERITIFGKSVLQPRLQTWHGDAPYTYSGLTMAPHPWTSELSSLKARCESLANTPFNSVLANLYRDGQDSMGWHQDNEPELGRNPVIASLNLGDTRRFVLRNLHCKTQIEYELGHGALLIMAGELQHHWRHCVPKTAKPKGERINLTFRHILNYLEHHHHHH
MSQKQEEENPAEETGEEKQDTQEKEGILPERAEEAKLKAKYPSLGQKPGGSDFLMKRLQKGQKYFDSGDYNMAKAKMKNKQLPSAGPDKNLVTGDHIPTPQDLPQRKSSLVTSKLAGGQVE
MSARILVVDDIEANVRLLEAKLTAEYYEVSTAMDGPTALAMAARDLPDIILLDVMMPGMDGFTVCRKLKDDPTTRHIPVVLITALDGRGDRIQGLESGASDFLTKPIDDVMLFARVRSLTRFKLVIDELRQREASGRRMGVIAGAAARLDGLGGRVLIVDDNERQAQRVAAELGVEHRPVIESDPEKAKISAGGPVDLVIVNAAAKNFDGLRFTAALRSEERTRQLPVLAMVDPDDRGRMVKALEIGVNDILSRPIDPQELSARVKTQIQRKRYTDYLRNNLDHSLELAVTDQLTGLHNRRYMTGQLDSLVKRATLGGDPVSALLIDIDFFKKINDTFGHDIGDEVLREFALRLASNVRAIDLPCRYGGEEFVVIMPDTALADALRIAERIRMHVSGSPFTVAHGREMLNVTISIGVSATAGEGDTPEALLKRADEGVYQAKASGRNAVVGKAAHHHHH
MQINGKAPRNKDLEPHSFELWLNAAKTNLDKYEMALIITATLGLRRGEVMGLRNESIKISHDQINDADVAQISIDMQRNTNELNGGPLKTKSSYRTIWAFGKTVDHLKYAMITADNLRQRNNIQAEKHWLWLNNDGNPLHPTHLNRLMRRVSNRSGVEVYPHLLRHYFATQAIAANKPQIDVMHYLGHKNLQMTADYTRSTKAASLNVFNSIDKFLLEHHHHHH
MAAAKIKKGDTVLVVRGKEKGKQGKVLKVYERVKRRDKQGNPVYVRHFVIVEGVRLIKKHVKPIEGVREGGIIETEGPIDISNVMLICPNCNKPTRVGFRIVEEGNVRRKYRYCKKCNENIDLVSEKVIKGG
